Experimental data from patent US20130005646A1 (Novo Nordisk, published 2013).
Starred links: 1 amine or outer side, 2 acyl side, 3 side chain; linkers in the order of their positions; H or OH if unused. Positions of bridges follow the written chain, without caps; N, C: chain ends. *: point of attachment. X1 = (S)‑4‑Carboxy‑4‑(19-carboxynonadecanoylamino)butyryl, O=C(O)CCCCCCCCCCCCCCCCCCC(=O)N[C@@H](CCC(=O)*)C(=O)O; C20 diacid = O=C(O)CCCCCCCCCCCCCCCCCCC(=O)*; γGlu = O=C(O)[C@H](CCC(=O)[*:2])N[*:1]

T1: human calcitonin (a) receptor (human, UniProt P30988 25-474)
T1 sequence (looked up): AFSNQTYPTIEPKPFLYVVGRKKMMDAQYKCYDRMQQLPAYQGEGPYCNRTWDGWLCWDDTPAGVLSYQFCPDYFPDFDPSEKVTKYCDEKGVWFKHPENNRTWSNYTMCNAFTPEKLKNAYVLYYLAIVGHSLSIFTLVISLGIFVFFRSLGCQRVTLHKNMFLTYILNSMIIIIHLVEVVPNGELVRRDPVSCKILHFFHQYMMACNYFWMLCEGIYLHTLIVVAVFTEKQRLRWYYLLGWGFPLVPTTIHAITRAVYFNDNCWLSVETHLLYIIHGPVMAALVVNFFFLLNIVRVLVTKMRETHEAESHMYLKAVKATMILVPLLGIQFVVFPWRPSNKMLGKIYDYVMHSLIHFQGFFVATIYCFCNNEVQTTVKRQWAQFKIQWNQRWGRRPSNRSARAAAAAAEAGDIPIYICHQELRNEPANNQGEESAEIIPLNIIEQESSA

T2: human amylin 3(a) receptor (human calcitonin receptor + RAMP-3) (human, UniProt P30988 25-474; O60896 24-148)
T2 sequence (looked up) 1: T1 sequence (looked up)
T2 sequence (looked up) 2: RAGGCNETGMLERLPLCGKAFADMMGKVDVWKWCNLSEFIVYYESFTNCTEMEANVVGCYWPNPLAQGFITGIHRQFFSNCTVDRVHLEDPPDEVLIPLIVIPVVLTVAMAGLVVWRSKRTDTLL

B1: N-alpha-[(S)-4-Carboxy-4-(19-carboxynonadecanoylamino)butyryl]-[Glu14,His17,Arg35]-pramlintide (peptide)
peptide: {C20 diacid-γGlu}-KCNTATCATQRLAEFLHHSSNNFGPILPPTNVGSRTY-NH2
modifications: disulfide 2-7
SMILES: CC[C@H](C)[C@H](NC(=O)[C@@H]1CCCN1C(=O)CNC(=O)[C@H](Cc1ccccc1)NC(=O)[C@H](CC(N)=O)NC(=O)[C@H](CC(N)=O)NC(=O)[C@H](CO)NC(=O)[C@H](CO)NC(=O)[C@H](Cc1c[nH]cn1)NC(=O)[C@H](Cc1c[nH]cn1)NC(=O)[C@H](CC(C)C)NC(=O)[C@H](Cc1ccccc1)NC(=O)[C@H](CCC(=O)O)NC(=O)[C@H](C)NC(=O)[C@H](CC(C)C)NC(=O)[C@H](CCCNC(=N)N)NC(=O)[C@H](CCC(N)=O)NC(=O)[C@@H](NC(=O)[C@H](C)NC(=O)[C@@H]1CSSC[C@H](NC(=O)[C@H](CCCCN)NC(=O)CC[C@H](NC(=O)CCCCCCCCCCCCCCCCCCC(=O)O)C(=O)O)C(=O)N[C@@H](CC(N)=O)C(=O)N[C@@H]([C@@H](C)O)C(=O)N[C@@H](C)C(=O)N[C@@H]([C@@H](C)O)C(=O)N1)[C@@H](C)O)C(=O)N[C@@H](CC(C)C)C(=O)N1CCC[C@H]1C(=O)N1CCC[C@H]1C(=O)N[C@H](C(=O)N[C@@H](CC(N)=O)C(=O)N[C@H](C(=O)NCC(=O)N[C@@H](CO)C(=O)N[C@@H](CCCNC(=N)N)C(=O)N[C@H](C(=O)N[C@@H](Cc1ccc(O)cc1)C(N)=O)[C@@H](C)O)C(C)C)[C@@H](C)O
B2: N-alpha-[(S)-4-Carboxy-4-(19-carboxynonadecanoylamino)butyryl]-[His1,Glu14,Ser21,Ser28,Ser29,His35]-pramlintide (peptide)
peptide: {C20 diacid-γGlu}-HCNTATCATQRLAEFLVHSSSNFGPILSSTNVGSHTY-NH2
modifications: disulfide 2-7
SMILES: CC[C@H](C)[C@H](NC(=O)[C@@H]1CCCN1C(=O)CNC(=O)[C@H](Cc1ccccc1)NC(=O)[C@H](CC(N)=O)NC(=O)[C@H](CO)NC(=O)[C@H](CO)NC(=O)[C@H](CO)NC(=O)[C@H](Cc1c[nH]cn1)NC(=O)[C@@H](NC(=O)[C@H](CC(C)C)NC(=O)[C@H](Cc1ccccc1)NC(=O)[C@H](CCC(=O)O)NC(=O)[C@H](C)NC(=O)[C@H](CC(C)C)NC(=O)[C@H](CCCNC(=N)N)NC(=O)[C@H](CCC(N)=O)NC(=O)[C@@H](NC(=O)[C@H](C)NC(=O)[C@@H]1CSSC[C@H](NC(=O)[C@H](Cc2c[nH]cn2)NC(=O)CC[C@H](NC(=O)CCCCCCCCCCCCCCCCCCC(=O)O)C(=O)O)C(=O)N[C@@H](CC(N)=O)C(=O)N[C@@H]([C@@H](C)O)C(=O)N[C@@H](C)C(=O)N[C@@H]([C@@H](C)O)C(=O)N1)[C@@H](C)O)C(C)C)C(=O)N[C@@H](CC(C)C)C(=O)N[C@@H](CO)C(=O)N[C@@H](CO)C(=O)N[C@H](C(=O)N[C@@H](CC(N)=O)C(=O)N[C@H](C(=O)NCC(=O)N[C@@H](CO)C(=O)N[C@@H](Cc1c[nH]cn1)C(=O)N[C@H](C(=O)N[C@@H](Cc1ccc(O)cc1)C(N)=O)[C@@H](C)O)C(C)C)[C@@H](C)O
B3: N-alpha-[(S)-4-Carboxy-4-(19-carboxynonadecanoylamino)butyryl]-[His1,Glu14,Pro37]-pramlintide (peptide)
peptide: {C20 diacid-γGlu}-HCNTATCATQRLAEFLVHSSNNFGPILPPTNVGSNTP-NH2
modifications: disulfide 2-7
SMILES: CC[C@H](C)[C@H](NC(=O)[C@@H]1CCCN1C(=O)CNC(=O)[C@H](Cc1ccccc1)NC(=O)[C@H](CC(N)=O)NC(=O)[C@H](CC(N)=O)NC(=O)[C@H](CO)NC(=O)[C@H](CO)NC(=O)[C@H](Cc1c[nH]cn1)NC(=O)[C@@H](NC(=O)[C@H](CC(C)C)NC(=O)[C@H](Cc1ccccc1)NC(=O)[C@H](CCC(=O)O)NC(=O)[C@H](C)NC(=O)[C@H](CC(C)C)NC(=O)[C@H](CCCNC(=N)N)NC(=O)[C@H](CCC(N)=O)NC(=O)[C@@H](NC(=O)[C@H](C)NC(=O)[C@@H]1CSSC[C@H](NC(=O)[C@H](Cc2c[nH]cn2)NC(=O)CC[C@H](NC(=O)CCCCCCCCCCCCCCCCCCC(=O)O)C(=O)O)C(=O)N[C@@H](CC(N)=O)C(=O)N[C@@H]([C@@H](C)O)C(=O)N[C@@H](C)C(=O)N[C@@H]([C@@H](C)O)C(=O)N1)[C@@H](C)O)C(C)C)C(=O)N[C@@H](CC(C)C)C(=O)N1CCC[C@H]1C(=O)N1CCC[C@H]1C(=O)N[C@H](C(=O)N[C@@H](CC(N)=O)C(=O)N[C@H](C(=O)NCC(=O)N[C@@H](CO)C(=O)N[C@@H](CC(N)=O)C(=O)N[C@H](C(=O)N1CCC[C@H]1C(N)=O)[C@@H](C)O)C(C)C)[C@@H](C)O
B4: N-alpha-[(S)-4-Carboxy-4-(19-carboxynonadecanoylamino)butyryl]-[His1,Glu14,Arg17,Ser21,Ser28,Ser29,His35]-pramlintide (peptide)
peptide: X1-HCNTATCATQRLAEFLRHSSSNFGPILSSTNVGSHTY-NH2
modifications: disulfide 2-7
SMILES: CC[C@H](C)[C@H](NC(=O)[C@@H]1CCCN1C(=O)CNC(=O)[C@H](Cc1ccccc1)NC(=O)[C@H](CC(N)=O)NC(=O)[C@H](CO)NC(=O)[C@H](CO)NC(=O)[C@H](CO)NC(=O)[C@H](Cc1c[nH]cn1)NC(=O)[C@H](CCCNC(=N)N)NC(=O)[C@H](CC(C)C)NC(=O)[C@H](Cc1ccccc1)NC(=O)[C@H](CCC(=O)O)NC(=O)[C@H](C)NC(=O)[C@H](CC(C)C)NC(=O)[C@H](CCCNC(=N)N)NC(=O)[C@H](CCC(N)=O)NC(=O)[C@@H](NC(=O)[C@H](C)NC(=O)[C@@H]1CSSC[C@H](NC(=O)[C@H](Cc2c[nH]cn2)NC(=O)CC[C@H](NC(=O)CCCCCCCCCCCCCCCCCCC(=O)O)C(=O)O)C(=O)N[C@@H](CC(N)=O)C(=O)N[C@@H]([C@@H](C)O)C(=O)N[C@@H](C)C(=O)N[C@@H]([C@@H](C)O)C(=O)N1)[C@@H](C)O)C(=O)N[C@@H](CC(C)C)C(=O)N[C@@H](CO)C(=O)N[C@@H](CO)C(=O)N[C@H](C(=O)N[C@@H](CC(N)=O)C(=O)N[C@H](C(=O)NCC(=O)N[C@@H](CO)C(=O)N[C@@H](Cc1c[nH]cn1)C(=O)N[C@H](C(=O)N[C@@H](Cc1ccc(O)cc1)C(N)=O)[C@@H](C)O)C(C)C)[C@@H](C)O
B5: N-alpha-[(S)-4-Carboxy-4-(19-carboxynonadecanoylamino)butyryl]-[des1,Glu14,Pro37]-pramlintide (peptide)
peptide: {C20 diacid-γGlu}-CNTATCATQRLAEFLVHSSNNFGPILPPTNVGSNTP-NH2
modifications: disulfide 1-6
SMILES: CC[C@H](C)[C@H](NC(=O)[C@@H]1CCCN1C(=O)CNC(=O)[C@H](Cc1ccccc1)NC(=O)[C@H](CC(N)=O)NC(=O)[C@H](CC(N)=O)NC(=O)[C@H](CO)NC(=O)[C@H](CO)NC(=O)[C@H](Cc1c[nH]cn1)NC(=O)[C@@H](NC(=O)[C@H](CC(C)C)NC(=O)[C@H](Cc1ccccc1)NC(=O)[C@H](CCC(=O)O)NC(=O)[C@H](C)NC(=O)[C@H](CC(C)C)NC(=O)[C@H](CCCNC(=N)N)NC(=O)[C@H](CCC(N)=O)NC(=O)[C@@H](NC(=O)[C@H](C)NC(=O)[C@@H]1CSSC[C@H](NC(=O)CC[C@H](NC(=O)CCCCCCCCCCCCCCCCCCC(=O)O)C(=O)O)C(=O)N[C@@H](CC(N)=O)C(=O)N[C@@H]([C@@H](C)O)C(=O)N[C@@H](C)C(=O)N[C@@H]([C@@H](C)O)C(=O)N1)[C@@H](C)O)C(C)C)C(=O)N[C@@H](CC(C)C)C(=O)N1CCC[C@H]1C(=O)N1CCC[C@H]1C(=O)N[C@H](C(=O)N[C@@H](CC(N)=O)C(=O)N[C@H](C(=O)NCC(=O)N[C@@H](CO)C(=O)N[C@@H](CC(N)=O)C(=O)N[C@H](C(=O)N1CCC[C@H]1C(N)=O)[C@@H](C)O)C(C)C)[C@@H](C)O

Target: T1, human calcitonin (a) receptor
Assay: cell-based or functional assay

Binder	CTa receptor human EC50 [nM]
B1	0.104
B2	0.349
B3	0.0725
B4	0.57
B5	0.0735

Target: T2, human amylin 3(a) receptor (human …)
Assay: cell-based or functional assay

Binder	Amylin receptor human EC50 [nM]
B1	0.098
B2	0.921
B3	0.0845
B4	0.394
B5	0.088
